Assay results from patent publication US20160068595A1.

Legend:
[1] = molecular target: human IL-20 (interleukin-20), recombinant (human) (UniProt Q9NYY1); assay: SPR, BIAcore T100; antibody captured on anti-human IgG CM5 chip, IL-20 as analyte, 1:1 model
[2] = molecular target: human IL-20 (interleukin-20), recombinant (human) (UniProt Q9NYY1); assay: binding kinetics of CDR mutants; method not named

Chain of human IL-20 (interleukin-20), recombinant (human) (Q9NYY1 25-176 limits assumed): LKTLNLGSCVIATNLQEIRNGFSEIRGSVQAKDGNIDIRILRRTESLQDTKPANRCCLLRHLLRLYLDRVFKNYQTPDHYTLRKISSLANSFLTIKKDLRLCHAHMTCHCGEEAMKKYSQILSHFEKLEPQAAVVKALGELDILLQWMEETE

- Kd [1]: 2.68 nM
- koff [1]: 0.00358 s⁻¹
- kon [1]: 1.34e+06 M⁻¹ s⁻¹
- Kd [2]: 2.68 nM
- koff [2]: 0.00358 s⁻¹
- kon [2]: 1.34e+06 M⁻¹ s⁻¹
B1: HH12 humanized anti-IL-20 antibody (antibody, V domains shown)
VH: EVQLQESGGGLVQPGGSLRLSCAASGFTFSDAWMDWVRQAPGKGLEWVGEIRSKANNYATYFAESVKGRFTISRDDSKNSLYLQMNSLKTEDTGVYYCTKLSLRYWFFDVWGQGTLVTVSS
VL: DIQMTQSPLSLSVTPGQPASISCKSSQSLLDSDGKTYLNWYQQKPGQSPQLLIYLVSKLDSGVPDRFSGSGSGTDFTLKISRVEAEDVGVYYCWQSTHFPWTFGQGTKVEIKR
